{"source": "patent US8940861B2", "about": "“Variants of ancestral uricases and uses thereof” (Georgia Tech Research Corporation, priority 2010, dated 2015)", "substrate": "O=c1[nH]c(=O)c2[nH]c(=O)[nH]c2[nH]1", "assay": "purified protein, by the assay type", "settings": "other: 0.1M Na2HPO4/Na2H2PO4, pH 7.4, 24° C.", "data": [{"protein": "pig uricase, SEQ ID NO:10 (Sus scrofa) (protein) MAHYRNDYKKNDEVEFVRTGYGKDMIKVLHIQRDGKYHSIKEVATSVQLTLSSKKDYLHGDNSDVIPTDTIKNTVNVLAKFKGIKSIETFAVTICEHFLSSFKHVIRAQVYVEEVPWKRFEKNGVKHVHAFIYTPTGTHFCEVEQIRNGPPVIHSGIKDLKVLKTTQSGFEGFIKDQFTTLPEVKDRCFATQVYCKWRYHQGRDVDFEATWDTVRSIVLQKFAGPYDKGEYSPSVQKTLYDIQVLTLGQVPEIEDMEISLPNIHYLNIDMSKMGLINKEEVLLPLDNPYGRITGTVKRKLTSRL", "values": [{"measurement": "Km", "result": 2.1, "unit": "µM"}, {"measurement": "kcat", "result": 7.83, "unit": "s⁻¹"}]}]}
